Results taken from PMC11050165.

Target: Haemophilus influenzae tellurite-resistance protein A (HiTehA) (Haemophilus influenzae) (UniProt P44741)
Experiment: cryo-EM structure; single-particle cryo-EM at 200 kV (Glacios, Falcon 4) of purified HiTehA at 3.0 mg/mL in detergent micelles (DDM, GDN, LMNG or OG); C3 symmetry imposed; no binding protein used

stoichiometry N: 3
Substance: Haemophilus influenzae tellurite-resistance protein A (HiTehA) (from UniProt P44741 1-328) (natural protein)
